# pIC50: −log10 of the molar value.
# Biological target: HLA-A*02:06
# Experiment: IEDB peptide-MHC binding, purified MHC/competitive/radioactivity; ≥ and ≤ were set here for values at or beyond the usual limits of such assays
# Settings: source organism: Hepacivirus hominis
row,Sequence,pIC50
1,ALYGVWPLLL,6.78
2,CLWWTCYMLV,5.57
3,FLLALLSCI,7.82
4,FLLALLSCL,7.62
5,FLLALLSCLT,6.23
6,FMLCLLLLS,5.68
7,FMLCLLLLSV,6.71
8,GLIHACMLV,7.92
9,GLLGCIITSL,6.50
10,GLLLLCVGV,6.05
11,GLLYFILFFV,6.17

# Same assay, conditions: source organism: Mammarenavirus brazilense
row,Sequence,pIC50
1,GLLEWIFRA,8.15

# Same assay, conditions: source organism: Mammarenavirus choriomeningitidis
row,Sequence,pIC50
1,FMLNVSYLC,6.03

# Same assay, conditions: source organism: Mammarenavirus machupoense
row,Sequence,pIC50
1,GLSQFTHTV,6.48

# Same assay, conditions: source organism: Mammarenavirus whitewaterense
row,Sequence,pIC50
1,FLLRGPFEAS,7.15
2,GLVDVCFWS,6.27

# Same assay, conditions: source organism: SARS-CoV1
row,Sequence,pIC50
1,ALSGVFCGV,7.30
2,ALVFLILCFT,6.64
3,ALVLLILMTA,7.21
4,ALVSGTATA,6.57
5,AQFLYLYAL,9.46
6,AQMGTLLIA,9.36
7,FLFLAWIMLL,5.99
8,FLLFLVLIML,5.53
9,FLLNKEMYL,8.80
10,FLMSFTILCL,7.13
11,FLTNKLLLFA,8.12
12,FLWLLWPVTL,7.55
13,FLYIIKLVFL,6.06
14,FQFICNLLLL,9.06
15,HLDGEVLSL,6.80
16,IAMWLLLLSI,6.30
17,ILFLTLIVFT,6.15

# Same assay, conditions: source organism: Vaccinia virus WR
row,Sequence,pIC50
1,ALMTLDDLAI,7.62
2,ALTDVEKRIL,6.03
3,AMIHKTYIDV,6.69
4,ATLNTLITL,8.02
5,AVTLNRIKIA,5.64
6,CLLTDTIESA,7.04
7,CLTVPNITI,5.78
8,DLLFNEKLKV,5.69
9,DMLKLFTHDI,5.53
10,DMLLNVQTLI,6.54
11,FLARKGIDT,5.52
12,FLDWIKDIM,6.79
13,FLPQIGGEAI,8.00
14,FLQISRVNDL,6.24
15,FMEEEIKAEM,6.06
16,GAFMYTKHSM,5.50
17,GIADIRDKYM,5.75
18,GIAIFNNRNL,5.33

row,Sequence,pIC50
1,GIIITVGMLI,5.95
2,GLCNYGGIL,5.87
3,GLDERFVEEL,5.60
4,GLFDINVIGL,6.62
5,GLKIEEIEKV,6.70
6,GLLDSIKMI,7.37
7,GLRQQLEDI,5.37
8,GLYIPGTSVI,5.44
9,GMQFDKVYL,5.72
10,GMSIVCIVA,5.35
11,GMYYPTNDI,5.77
12,GVSGLYIPGT,7.49
13,IALCKVTVPT,6.19
14,IIGEPIIVA,5.87
15,ILDNAAKYV,5.74
16,ILDNLRCHSA,6.53
17,ILFQNNDINA,5.50
18,ILGIIITVGM,5.33

# Biological target: HLA-A*02:03
# Experiment: as above
# Settings: source organism: Hepacivirus hominis
row,Sequence,pIC50
1,ALYGVWPLLL,8.12
2,CLWWTCYMLV,6.05
3,FLLALLSCI,8.14
4,FLLALLSCL,7.77
5,FLLALLSCLT,6.81
6,FMLCLLLLS,5.84
7,FMLCLLLLSV,6.50
8,GLIHACMLV,8.72
9,GLLGCIITSL,8.51
10,GLLLLCVGV,6.55
11,GLLYFILFFV,6.73

# Same assay, conditions: source organism: Mammarenavirus brazilense
row,Sequence,pIC50
1,GLLEWIFRA,6.65

# Same assay, conditions: source organism: Mammarenavirus choriomeningitidis
row,Sequence,pIC50
1,FMLNVSYLC,5.90

# Same assay, conditions: source organism: Mammarenavirus machupoense
row,Sequence,pIC50
1,GLSQFTHTV,8.11

# Same assay, conditions: source organism: Mammarenavirus whitewaterense
row,Sequence,pIC50
1,FLLRGPFEAS,7.08
2,GLVDVCFWS,5.97

# Same assay, conditions: source organism: SARS-CoV1
row,Sequence,pIC50
1,ALSGVFCGV,7.92
2,ALVFLILCFT,5.95
3,ALVLLILMTA,7.29
4,ALVSGTATA,8.09
5,AQFLYLYAL,8.21
6,AQMGTLLIA,8.80
7,FLFLAWIMLL,7.25
8,FLLFLVLIML,5.86
9,FLLNKEMYL,8.96
10,FLMSFTILCL,6.67
11,FLTNKLLLFA,8.85
12,FLWLLWPVTL,7.85
13,FLYIIKLVFL,7.66
14,FQFICNLLLL,7.21
15,HLDGEVLSL,6.88
16,IAMWLLLLSI,5.72
17,ILFLTLIVFT,5.97

# Same assay, conditions: source organism: Vaccinia virus WR
row,Sequence,pIC50
1,ALMTLDDLAI,7.54
2,ALTDVEKRIL,6.90
3,AMIHKTYIDV,7.57
4,ATLNTLITL,6.24
5,AVTLNRIKIA,5.89
6,CLLTDTIESA,6.99
7,CLTVPNITI,7.12
8,DLLFNEKLKV,6.50
9,DMLKLFTHDI,7.80
10,DMLLNVQTLI,6.79
11,FLARKGIDT,6.50
12,FLDWIKDIM,6.53
13,FLPQIGGEAI,7.85
14,FLQISRVNDL,7.17
15,FMEEEIKAEM,5.51
16,GAFMYTKHSM,6.34
17,GIADIRDKYM,7.32
18,GIAIFNNRNL,5.69

row,Sequence,pIC50
1,GIIITVGMLI,6.23
2,GLCNYGGIL,6.90
3,GLDERFVEEL,5.92
4,GLFDINVIGL,8.85
5,GLKIEEIEKV,8.18
6,GLLDSIKMI,7.85
7,GLRQQLEDI,8.33
8,GLYIPGTSVI,9.72
9,GMQFDKVYL,6.56
10,GMSIVCIVA,6.18
11,GMYYPTNDI,8.06
12,GVSGLYIPGT,5.67
13,IALCKVTVPT,5.65
14,IIGEPIIVA,5.32
15,ILDNAAKYV,6.58
16,ILDNLRCHSA,7.16
17,ILFQNNDINA,6.39
18,ILGIIITVGM,6.58

# Biological target: HLA-A*02:02
# Experiment: as above
# Settings: source organism: Hepacivirus hominis
row,Sequence,pIC50
1,ALYGVWPLLL,8.05
2,CLWWTCYMLV,5.73
3,FLLALLSCI,8.06
4,FLLALLSCL,8.59
5,FLLALLSCLT,7.07
6,FMLCLLLLS,6.00
7,FMLCLLLLSV,6.33
8,GLIHACMLV,8.82
9,GLLGCIITSL,7.46
10,GLLLLCVGV,6.32
11,GLLYFILFFV,6.85

# Same assay, conditions: source organism: Mammarenavirus brazilense
row,Sequence,pIC50
1,GLLEWIFRA,7.66

# Same assay, conditions: source organism: Mammarenavirus choriomeningitidis
row,Sequence,pIC50
1,FMLNVSYLC,6.71

# Same assay, conditions: source organism: Mammarenavirus machupoense
row,Sequence,pIC50
1,GLSQFTHTV,8.28

# Same assay, conditions: source organism: Mammarenavirus whitewaterense
row,Sequence,pIC50
1,FLLRGPFEAS,7.57
2,GLVDVCFWS,6.94

# Same assay, conditions: source organism: SARS-CoV1
row,Sequence,pIC50
1,ALSGVFCGV,8.92
2,ALVFLILCFT,6.68
3,ALVLLILMTA,7.17
4,ALVSGTATA,8.34
5,AQFLYLYAL,9.04
6,AQMGTLLIA,7.19
7,FLFLAWIMLL,7.72
8,FLLFLVLIML,5.80
9,FLLNKEMYL,9.48
10,FLMSFTILCL,9.09
11,FLTNKLLLFA,9.38
12,FLWLLWPVTL,8.57
13,FLYIIKLVFL,8.14
14,FQFICNLLLL,8.10
15,HLDGEVLSL,7.18
16,IAMWLLLLSI,7.07
17,ILFLTLIVFT,7.62

# Same assay, conditions: source organism: Vaccinia virus WR
row,Sequence,pIC50
1,ALMTLDDLAI,7.85

# From the Immune Epitope Database (IEDB)
